# From patent US12285465B2, “Combined treatment of primary central nervous system lymphoma” (FONDAZIONE CENTRO SAN RAFFAELE, priority 2018, dated 2025)
# Entries after “also recorded” stand apart in the source; their conditions may differ.
# Key:
# [1] = INGRID phase II trial: toxicity graded by NCI-NCIC CTC version 3.0; type: in vivo; conditions: of 132 delivered courses; fever, chills, arterial hypertension
# Method: Treatment side effects were assessed separately for each chemotherapy course and graded according to the NCI-NCIC CTC version 3·0^19. The worst toxicity per organ, per patient was considered. Periodic specialist controls, ECG, troponin levels determination, and echocardiography were performed before every treatment course to exclude cardiac toxicity. The impact of treatment on cognitive functions was not assessed by ad hoc tests.
# Duration of response, PFS, OS, and tolerability were the secondary endpoints. Duration of response was defined as the time from the first assessment that documents the response to the date of relapse, date of death from any cause or date of the last visit of follow-up. PFS was defined as the interval between the time of entry onto trial and failure (relapsing or progressive disease), death from any cause or date of the last visit of follow-up. OS was defined as the time from entry onto trial until death from any cause or date of the last visit of follow-up. Tolerability was defined by of grade 3-4 AEs according to NCI CTCAE^19.
# [2] = tested on: BBB permeability in lymphomatous lesions and perilesional area; test: BBB permeability assessed by DCE-MRI (Ktrans); type: in vivo, human; conditions: tumoral/peritumoral areas
# Method: Variations induced by NGR-hTNF in the BBB permeability at the level of the lymphomatous lesions, areas surrounding the tumor (perilesional area) and in the normal-appearing brain parenchyma were assessed by DCE-MRI. DCE acquisition followed a standard protocol^28 that included also conventional T1, T2, Flair, DWI and Dynamic Susceptibility Contrast Perfusion (DSC) sequences. […] In cases of multiple lesions, the largest one was considered. Post-processing of DCE-MRI was performed using Olea software (La Ciotat, France); all dynamic images were corrected for motion artifacts and co-registered to a volumetric post-contrast T1 sequences. Results were expressed as Ktrans values normalized using contralateral white matter. Ktrans obtained after the 2nd course (measured after NGR-hTNF infusion) were compared with those obtained after the 1st course (without NGR-hTNF) to establish the effect of TNF on BBB permeabilization. Statistically significance was assessed by Wilcoxon matched pairs test.
substance,measurement,setting,value
"NGR-hTNF: genetically engineered protein consisting of CNGRCG fused to the N-terminus of human tumor necrosis factor alpha (SEQ ID No. 1), expressed in E. coli",TNF Infusion reaction Grade 1-2 (number of courses),[1],nine
same,"vascular permeability (DCE-MRI, SPECT)",[2],selectively increased vascular permeability in tumoral/peritumoral areas; also recorded: vascular permeability was increased
